This passage reports peptide exchange yield results from patent US20200000897A1 (published 2020).

Some results are limits rather than exact numbers.

To fix the notation:
B1: QICLPAIYK (peptide)
peptide: QICLPAIYK
B2: AVIGALLAVGATK (peptide)
peptide: AVIGALLAVGATK
B3: GISNPITTSK (peptide)
peptide: GISNPITTSK
B4: RTIDRSVFK (peptide)
peptide: RTIDRSVFK
B5: RVSSVKLISK (peptide)
peptide: RVSSVKLISK
B6: RSNPYFQNK (peptide)
peptide: RSNPYFQNK
B7: RLAVSTRGK (peptide)
peptide: RLAVSTRGK
B8: RVLPPLTRILK (peptide)
peptide: RVLPPLTRILK
B9: IVFPDVISK (peptide)
peptide: IVFPDVISK
B10: KTCQVSGLLY (peptide)
peptide: KTCQVSGLLY
B11: SVLDKLLFH (peptide)
peptide: SVLDKLLFH
B12: KLYPTHACR (peptide)
peptide: KLYPTHACR
B13: ALAAKLEVK (peptide)
peptide: ALAAKLEVK
B14: AVYNYPEGAAY (peptide)
peptide: AVYNYPEGAAY
B15: QVRDTLKIVFK (peptide)
peptide: QVRDTLKIVFK
B16: KLQAKVLQY (peptide)
peptide: KLQAKVLQY
B17: RVWLGKHYK (peptide)
peptide: RVWLGKHYK
B18: RSYSHVVLK (peptide)
peptide: RSYSHVVLK
B19: RLYEMILQR (peptide)
peptide: RLYEMILQR
B20: SSLAELIAK (peptide)
peptide: SSLAELIAK
B21: KINPTASLK (peptide)
peptide: KINPTASLK
B22: KLFTSVFGVGLK (peptide)
peptide: KLFTSVFGVGLK
B23: SLYNLGGAK (peptide)
peptide: SLYNLGGAK
B24: KVFEEPEDFLK (peptide)
peptide: KVFEEPEDFLK
B25: RVAEEILIK (peptide)
peptide: RVAEEILIK
B26: RLYDAYVNR (peptide)
peptide: RLYDAYVNR
B27: KVADFGLARLLK (peptide)
peptide: KVADFGLARLLK
B28: EGLFLLGCVK (peptide)
peptide: EGLFLLGCVK
B29: RVYPRPPSKTY (peptide)
peptide: RVYPRPPSKTY
B30: KVLEPPLGAR (peptide)
peptide: KVLEPPLGAR
B31: RIYVYVKRK (peptide)
peptide: RIYVYVKRK
B32: RSYVPLAH (peptide)
peptide: RSYVPLAH
B33: VAFIPLSNK (peptide)
peptide: VAFIPLSNK
B34: KIWQNLRLK (peptide)
peptide: KIWQNLRLK
B35: RSKWSNVFK (peptide)
peptide: RSKWSNVFK
B36: ALPRQAFHSK (peptide)
peptide: ALPRQAFHSK
B37: KIFQGQINK (peptide)
peptide: KIFQGQINK
B38: KMMKRLMTVEK (peptide)
peptide: KMMKRLMTVEK
B39: RLYYSFKNITK (peptide)
peptide: RLYYSFKNITK
B40: ALERKFRQK (peptide)
peptide: ALERKFRQK
B41: SSLPRAFQK (peptide)
peptide: SSLPRAFQK
B42: RLKMAQESVSK (peptide)
peptide: RLKMAQESVSK
B43: KAFNQSSIFTK (peptide)
peptide: KAFNQSSIFTK
B44: RLFPGLYLGY (peptide)
peptide: RLFPGLYLGY
B45: KILDRVLSRY (peptide)
peptide: KILDRVLSRY
B46: VSLGTPIMK (peptide)
peptide: VSLGTPIMK
B47: RVYEGDGRNSLK (peptide)
peptide: RVYEGDGRNSLK
B48: IVYPSATDKTK (peptide)
peptide: IVYPSATDKTK
B49: LLPTVLIKK (peptide)
peptide: LLPTVLIKK
B50: RVYPRPPSK (peptide)
peptide: RVYPRPPSK
B51: RIVDYLLEK (peptide)
peptide: RIVDYLLEK
B52: KLSLSHKK (peptide)
peptide: KLSLSHKK
B53: VIGTTSSPK (peptide)
peptide: VIGTTSSPK
B54: KVMPKQTWK (peptide)
peptide: KVMPKQTWK
B55: AISSTVLGK (peptide)
peptide: AISSTVLGK
B56: IVAFIPLSNK (peptide)
peptide: IVAFIPLSNK
B57: ALLGVIIAKK (peptide)
peptide: ALLGVIIAKK
B58: KVYIPPIINK (peptide)
peptide: KVYIPPIINK
B59: SIINFKPLTY (peptide)
peptide: SIINFKPLTY
B60: SLYDGFLSY (peptide)
peptide: SLYDGFLSY
B61: KTGWFTLLY (peptide)
peptide: KTGWFTLLY

The target in this test is T1, HLA-A*03:01 (human).
T1 construct: MHC class I monomer first loaded with a UV-sensitive peptide that is cleaved by UV irradiation and exchanged for the test peptide; captured on streptavidin plates; also called peptide-receptive MHC molecules
Description: UV-ligand exchange, anti-b2m ELISA; peptide exchange yield grade (>10% +, >20% ++, >50% +++, >75% ++++). The text has this: Candidate peptides for T cell based therapies according to the present invention were further tested for their MHC binding capacity (affinity). The individual peptide-MHC complexes were produced by UV-ligand exchange, where a UV-sensitive peptide is cleaved upon UV-irradiation and exchanged with the peptide of interest as analyzed. Only peptide candidates that can effectively bind and stabilize the peptide-receptive MHC molecules prevent dissociation of the MHC complexes. To determine the yield of the exchange reaction, an ELISA was performed based on the detection of the light chain (β2m) of stabilized MHC complexes. The assay was performed as generally described in Rodenko et al. (Rodenko et al., 2006)
96 well MAXISorp plates (NUNC) were coated over night with 2 ug/ml streptavidin in PBS at room temperature, washed 4× and blocked forl h at 37° C. in 2% BSA containing blocking buffer. Refolded HLA-A*02:01/MLA-001 monomers served as standards, covering the range of 15-500 ng/ml. Peptide-MHC monomers of the UV-exchange reaction were diluted 100-fold in blocking buffer. Samples were incubated for 1 h at 37° C., washed four times, incubated with 2 ug/ml HRP conjugated anti-β2m for 1 h at 37° C., washed again and detected with TMB solution that is stopped with […]. Absorption was measured at 450 nm.
For orientation: ELISA stands for enzyme-linked immunosorbent assay.
For the molecule B1, the peptide exchange yield is more than 75%. For B2 the value was 50 to 75%; for B3, more than 75%; for B4, more than 75%. For B5 the value was 50 to 75%; for B6, more than 75%; for B7, more than 75%.

With B8, the peptide exchange yield is more than 75%. With B9 the figure was more than 75%; with B10, more than 75%; with B11, more than 75%. With B12 the figure was more than 75%; with B13, more than 75%. On to B14, for which the peptide exchange yield was more than 75%. With B15 the figure was 50 to 75%; with B16, more than 75%.

B17 returned a peptide exchange yield of more than 75%. With B18 the figure was more than 75%; with B19, more than 75%. For B20 the value was 20 to 50%; for B21, 50 to 75%. B22 registered a peptide exchange yield of more than 75%. For B23 the value was more than 75%. For B24 the value was 20 to 50%; for B25, 50 to 75%; for B26, more than 75%.

As for B27, the peptide exchange yield is more than 75%. For B28 the value was 50 to 75%; for B29, more than 75%; for B30, 50 to 75%. For B31 the value was 50 to 75%; for B32, more than 75%. For B33 the value was more than 75%; for B34, 50 to 75%; for B35, more than 75%. In turn, B36 yielded a peptide exchange yield of more than 75%.

In turn, B37 registered a peptide exchange yield of more than 75%. For B38 the value was more than 75%; for B39, more than 75%. For B40 the value was more than 75%; for B41, 20 to 50%; for B42, more than 75%.

Molecule B43 yielded a peptide exchange yield of 50 to 75%. B44 gave a peptide exchange yield of 50 to 75%. With B45 the figure was more than 75%; with B46, 50 to 75%. With B47 the figure was 50 to 75%; with B48, 50 to 75%. Molecule B49 yielded a peptide exchange yield of 50 to 75%. For B50 the value was more than 75%; for B51, more than 75%.

In turn, B52 showed a peptide exchange yield of 50 to 75%. For B53 the value was 50 to 75%; for B54, 50 to 75%. With B55 the figure was more than 75%. With B56 the figure was more than 75%. Consider B57, for which the peptide exchange yield was more than 75%. For B58 the value was more than 75%; for B59, 50 to 75%; for B60, more than 75%.

As for B61, the peptide exchange yield was more than 75%.
